US20100008928A1 (Takeda / Millennium, published 2010)
Substitutions are numbered along the chain they refer to.

What was measured:
Test in all cases: FCM
[1] = target: T1, nectin-2 Ig2 domain-deficient protein (human, UniProt Q92692 32-538)
T1 construct: transient in CHO-K1; also called delta-Ig2; Nectin-2ΔIg2
T1 sequence: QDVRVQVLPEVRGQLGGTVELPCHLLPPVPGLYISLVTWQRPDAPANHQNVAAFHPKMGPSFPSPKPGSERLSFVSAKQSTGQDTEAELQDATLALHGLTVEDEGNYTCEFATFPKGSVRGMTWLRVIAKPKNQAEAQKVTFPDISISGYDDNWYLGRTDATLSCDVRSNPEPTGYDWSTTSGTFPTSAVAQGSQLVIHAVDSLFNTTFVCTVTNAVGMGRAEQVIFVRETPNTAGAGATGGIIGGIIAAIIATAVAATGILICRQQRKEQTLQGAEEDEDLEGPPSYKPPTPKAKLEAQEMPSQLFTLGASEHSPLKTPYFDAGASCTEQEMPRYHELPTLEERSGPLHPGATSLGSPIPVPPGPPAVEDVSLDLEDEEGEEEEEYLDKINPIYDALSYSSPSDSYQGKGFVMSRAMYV
Procedure: (§1) After 200 μL of FCM buffer was added to each well and washed once by centrifugal operation, 50 μL each of Alexa488-labeled secondary antibody diluted in FCM buffer to 10 μg/mL was added to and mixed therewith, and the mixture was then reacted on ice for an hour. The Alexa488-labeled secondary antibody used was Alexa Fluor488 goat anti-human IgG (H+L) for the human antibodies and Alexa Fluor488 goat anti-rabbit IgG (H+L) (Invitrogen) for the rabbit antibody. The cells in each well were washed twice with FCM buffer and then resuspended in 250 μL of FCM buffer. Using the flow cytometer MPL500 (BECKMAN COULTER), the fluorescence intensity of stained cells was measured to determine the ratio of the median value of fluorescence intensities of the respective antibodies in the primary antibody group to the median value of fluorescence intensities in the negative control group.

[2] = target: T2, nectin-2 Ig1 domain-deficient protein (human, UniProt Q92692 32-538)
T2 construct: transient in CHO-K1; also called delta-Ig1; Nectin-2ΔIg1
T2 sequence: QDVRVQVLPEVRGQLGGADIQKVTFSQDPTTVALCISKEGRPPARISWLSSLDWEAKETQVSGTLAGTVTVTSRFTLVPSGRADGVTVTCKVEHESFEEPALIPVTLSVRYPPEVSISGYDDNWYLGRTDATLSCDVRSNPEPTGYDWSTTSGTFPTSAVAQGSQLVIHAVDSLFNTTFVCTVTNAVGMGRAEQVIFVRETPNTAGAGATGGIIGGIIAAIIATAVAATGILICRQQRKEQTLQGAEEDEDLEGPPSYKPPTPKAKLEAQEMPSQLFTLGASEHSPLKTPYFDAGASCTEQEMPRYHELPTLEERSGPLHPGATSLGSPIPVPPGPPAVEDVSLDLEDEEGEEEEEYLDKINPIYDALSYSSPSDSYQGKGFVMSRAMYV
Procedure: as §1

human Nec1-5 protein = target: T3, human Nec1-5 protein (human, UniProt P15151 21-417)
T3 construct: transient in CHO-K1 from pCMV-Tag4-Nec1-5; also called Necl-5
T3 sequence: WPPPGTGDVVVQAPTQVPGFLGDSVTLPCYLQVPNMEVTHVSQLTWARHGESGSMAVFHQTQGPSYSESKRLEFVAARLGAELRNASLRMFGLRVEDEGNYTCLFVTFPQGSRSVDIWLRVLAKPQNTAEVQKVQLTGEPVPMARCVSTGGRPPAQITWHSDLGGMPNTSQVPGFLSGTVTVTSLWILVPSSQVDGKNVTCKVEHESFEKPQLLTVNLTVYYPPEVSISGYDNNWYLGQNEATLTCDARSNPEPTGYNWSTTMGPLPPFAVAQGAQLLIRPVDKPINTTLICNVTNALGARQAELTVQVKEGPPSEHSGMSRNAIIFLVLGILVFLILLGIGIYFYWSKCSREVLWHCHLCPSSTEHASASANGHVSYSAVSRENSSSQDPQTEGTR
Procedure: (§2) Specifically, CHO-K1 cell line was incubated in a T75 flask charged with a medium mixture of DMEM and F-12 in equivalent volumes (Invitrogen) supplmented with 10% FBS (JRH) at 37° C. for 1 to 2 days in a 5% carbon dioxide gas flow. […] Four hours after the transfection, the medium for the CHO-K1 cells was exchanged with a fresh aliquot of the medium described above, followed by incubation for further 2 days. These cells were washed twice with D-PBS, detached by Cell Dissociation Buffer, enzyme-free, PBS-based (Invitrogen) and resuspended in D-PBS (−) containing 1% FBS and 0.1% sodium azide (hereinafter referred to as FCM buffer) at a density of 5×10⁶ cells/mL. […] After 200 μL of FCM buffer was added to each well and washed once by centrifugal operation, 50 μL/well of Alexa488-labeled secondary antibody diluted in FCM buffer to 10 μg/mL was added for suspension, which was then reacted on ice for an hour.

human nectin-4 protein = target: T4, human nectin-4 protein (human, UniProt Q96NY8 32-510)
T4 construct: transient in CHO-K1 from pCMV-Tag4-Nectin-4
T4 sequence: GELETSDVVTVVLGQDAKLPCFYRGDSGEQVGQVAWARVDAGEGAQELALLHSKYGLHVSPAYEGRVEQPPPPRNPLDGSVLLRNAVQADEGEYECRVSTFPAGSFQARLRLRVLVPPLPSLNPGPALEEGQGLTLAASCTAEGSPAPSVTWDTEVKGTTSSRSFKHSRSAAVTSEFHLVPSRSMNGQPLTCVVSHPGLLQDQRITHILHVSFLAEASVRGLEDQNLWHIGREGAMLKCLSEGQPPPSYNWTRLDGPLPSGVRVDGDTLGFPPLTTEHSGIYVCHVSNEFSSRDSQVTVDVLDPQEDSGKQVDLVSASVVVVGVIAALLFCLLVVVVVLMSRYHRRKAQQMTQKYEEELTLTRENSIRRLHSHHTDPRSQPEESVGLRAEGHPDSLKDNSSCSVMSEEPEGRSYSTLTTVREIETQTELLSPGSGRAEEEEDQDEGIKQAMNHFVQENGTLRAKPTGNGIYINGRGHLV
Procedure: as §2

human nectin-1 protein = target: T5, human nectin-1 protein (human, UniProt Q15223 31-517)
T5 construct: transient in CHO-K1 from pCMV-Tag4-Nectin-1
T5 sequence: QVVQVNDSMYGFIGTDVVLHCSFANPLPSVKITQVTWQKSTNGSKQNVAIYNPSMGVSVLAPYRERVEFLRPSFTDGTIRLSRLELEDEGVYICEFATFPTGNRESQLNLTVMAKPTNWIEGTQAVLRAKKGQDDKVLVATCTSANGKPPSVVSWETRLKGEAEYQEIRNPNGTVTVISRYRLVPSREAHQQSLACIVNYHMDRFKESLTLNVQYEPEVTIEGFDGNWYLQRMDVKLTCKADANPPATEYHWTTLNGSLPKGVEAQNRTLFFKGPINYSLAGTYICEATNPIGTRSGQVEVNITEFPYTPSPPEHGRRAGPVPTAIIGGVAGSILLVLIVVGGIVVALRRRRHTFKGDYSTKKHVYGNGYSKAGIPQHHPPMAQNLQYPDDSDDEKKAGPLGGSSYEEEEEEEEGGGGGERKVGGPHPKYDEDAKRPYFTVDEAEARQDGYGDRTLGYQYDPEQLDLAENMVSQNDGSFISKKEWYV
Procedure: as §2

B1: Nec1-554-1 SP3 (antibody, V domains shown)
VH: EVQLVESGGGLVKPGGSLRLSCAASGFTFSSYNMNWVRQAPGKGLEWVSSISSSSSYIYYADSVKGRFTISRDNAKNSLYLQMNSLRAEDTAVYYCARDYYGSGTYYLFDYWGQGTLVTVSS
VL: EIVLTQSPDFQSVTPKEKVTITCRASQSIGSSLHWYQQKPDQSPKLLIKYASQSFSGVPSRFSGSGSGTDFTLTINSLEAEDAAAYYCHQSRSLPITFGQGTRLEIK
notes: also called antibody fraction (SP3)
binding result [1]: no binding (tested: ratio <2 = no reactivity; 6 µg/mL) | median fluorescence ratio [2]: 4.3

B2: Nec1-803-2 (antibody, human IgG1, V domains shown)
VH: QVQLQESGPGLVKPSETLSLTCTVSGGSISSYYWTWIRQPPGKGLEWIGYIYYSGSTNSNPSLKSRVTISVDTSKNQFSLKLSSVTAADTAVYYCTRDPGEDYNYGMDVWGQGTTVTVSS
VL: AIQLTQSPSSLSASVGDRVTITCRASQGISSALAWYQQKPGKAPKLLIYDASSLESGVPSRFSGSGSGTDFTLTISSLQPEDFATYYCQQFNSYPRTFGQGTKVEIK
binding result (human Nec1-5 protein): no binding (tested: 6 µg/mL) | binding result (human nectin-4 protein): no binding (tested: 6 µg/mL) | binding result (human nectin-1 protein): no binding (tested: 6 µg/mL)

B3: Nec1-834-1 (antibody, human IgG1, V domains shown)
VH: B2 VH with G26S, G27A, T35S, S59Y, V71I, T96A, P99A, N104S
VL: AIQLTQSPSSLSASVGDRVTITCRASQGISSALAWYQQKPGKAPKLLIYDASSLESGVPSRFSGSGSGTDFTLTISSLQPEDFATYYCQQFNSYRTFGQGTKVEIK
notes: human IgG1/k from hybridoma FERM BP-10428
binding result (human Nec1-5 protein): no binding (tested: 6 µg/mL) | binding result (human nectin-4 protein): no binding (tested: 6 µg/mL) | binding result (human nectin-1 protein): no binding (tested: 6 µg/mL)
